Test results: the supplement of paper PMC7877785
± gives the uncertainty stated by the source.

Assay: self-splicing fitness, log relative to wild type (ln ratio); higher = more splicing; Tetrahymena group I intron in knt gene, E. coli kanamycin selection, DiMSum; sequences stand for … in CUCUCU…GGAGGGAAAAGUUAUCAGGCAUGCACCUGGUAGCUAGUCUUUAAACCAAUAGAUUGCAUCGGUUUAAAAGGCAAGACCGUCAAAUUGCGGGAAAGGGGUCAACAGCCGUUCAGUACCAAGUCUCAGGGGAAACUUUGAGAUGGCCUUGCAAAGGGUAUGGUAAUAAGCUGACGGACAUGGUCCUAACCACGCAGCCAAGUCCUAAGUCAACAGAUCUUCUGUUGAUAUGGAUGCAGUUCACAGACUAAAUGUCGGUCGGGGAAGAUGUAUUCUUCUCAUAAGAUAUAGUCGGACCUCUCCUUAAUGGGAGCUAGCGGAUGAAGUGAUGCAACACUGGAGCCGCUGGGAACUAAUUUGUAUGCGAAAGUAUAUUGAUUAGUUUUGGAGUACUCGUGGUCG
How it was run: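 Six replicate transformations of E. coli BL21(DE3) with a pET-22b(+) library were grown overnight at 37°C or 30°C. The library randomised all eight P1ex-region intron nucleotides, the intron lying in the knt kanamycin-resistance gene, and plates were LB agar with or without 25 μg/mL kanamycin plus 100 μg/mL carbenicillin, 50 μM IPTG and 0.2% rhamnose. Pooled colonies were amplicon-sequenced on an Illumina HiSeq 2500, and fitness is the DiMSum error-weighted combination of wild-type-normalised replicate fold changes, kanamycin versus none.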

Sequence | self-splicing fitness (ln) (30 °C) | self-splicing fitness (ln) (37 °C)
CCUAAGCAAUAUUACGAGUU | -4.08 ± 0.2 | -2.22 ± 0.14
CCUAAGCAAUAUUACGAUGA | -3.09 ± 0.21 | -1.84 ± 0.18
CCUAAGCAAUAUUACGCAUU | -3.56 ± 0.29 | -2.2 ± 0.27
CCUAAGCAAUAUUACGCCAG | -2.8 ± 0.26 | -2.13 ± 0.29
CCUAAGCAAUAUUACGCCAU | -4.47 ± 0.46 | -2.48 ± 0.34
CCUAAGCAAUAUUACGCCCG | -2.22 ± 0.22 | -0.795 ± 0.26
CCUAAGCAAUAUUACGCCGG | -3.61 ± 0.24 | -2.57 ± 0.21
CCUAAGCAAUAUUACGCCUA | -2.7 ± 0.21 | -2.24 ± 0.28
CCUAAGCAAUAUUACGCGUC | -3.25 ± 0.16 | -1.95 ± 0.17
CCUAAGCAAUAUUACGCUGU | -3.8 ± 0.33 | -2.61 ± 0.33
CCUAAGCAAUAUUACGGCAG | -2.09 ± 0.084 | -1.21 ± 0.098
CCUAAGCAAUAUUACGGCCA | -2.55 ± 0.22 | -2.58 ± 0.26
CCUAAGCAAUAUUACGGCGU | -4.15 ± 0.3 | -2.49 ± 0.24
CCUAAGCAAUAUUACGGCUA | -3.69 ± 0.47 | -3.14 ± 0.25
CCUAAGCAAUAUUACGGCUU | -3.04 ± 0.15 | -3.04 ± 0.21
CCUAAGCAAUAUUACGGGAC | -3.86 ± 0.23 | -2.7 ± 0.22
CCUAAGCAAUAUUACGGGUA | -2.36 ± 0.27 | -1.67 ± 0.25
CCUAAGCAAUAUUACGGUAG | -1.27 ± 0.078 | -0.941 ± 0.097
CCUAAGCAAUAUUACGUCCA | -3.28 ± 0.25 | -2.1 ± 0.41
CCUAAGCAAUAUUACGUGGA | -2.73 ± 0.15 | -2.55 ± 0.28
CCUAAGCAAUAUUACGUGGC | -3.59 ± 0.18 | -2.85 ± 0.19
CCUAAGCAAUAUUACGUUGA | -3.74 ± 0.25 | -1.94 ± 0.17
CCUCAGCAAUAUUACGAAUC | -3.45 ± 0.28 | -2.82 ± 0.31
CCUCAGCAAUAUUACGACAU | -3.84 ± 0.024 | -2.84 ± 0.039

Sequence | self-splicing fitness (ln) (30 °C) | self-splicing fitness (ln) (37 °C)
CCUCAGCAAUAUUACGACCC | -2.75 ± 0.38 | -2.41 ± 0.49
CCUCAGCAAUAUUACGAGAA | -3.3 ± 0.41 | -2.28 ± 0.29
CCUCAGCAAUAUUACGAGGC | – | -2.19 ± 0.31
CCUCAGCAAUAUUACGAGUG | -2.34 ± 0.14 | -0.953 ± 0.14
CCUCAGCAAUAUUACGAUGC | -4.19 ± 0.24 | -2.15 ± 0.3
CCUCAGCAAUAUUACGCAAG | -3.31 ± 0.17 | -1.71 ± 0.14
CCUCAGCAAUAUUACGCACU | -3.26 ± 0.18 | -1.63 ± 0.2
CCUCAGCAAUAUUACGCCCA | -3.18 ± 0.22 | -3.5 ± 0.39
CCUCAGCAAUAUUACGCUGA | -2.75 ± 0.35 | -3.12 ± 0.47
CCUCAGCAAUAUUACGCUUG | -4.31 ± 0.37 | -2.52 ± 0.23
CCUCAGCAAUAUUACGGAAG | -1.05 ± 0.11 | -0.549 ± 0.14
CCUCAGCAAUAUUACGGAAU | -3.72 ± 0.3 | -2.69 ± 0.25
CCUCAGCAAUAUUACGGCAU | -3.12 ± 0.13 | -2.42 ± 0.18
CCUCAGCAAUAUUACGGCUA | -3.62 ± 0.4 | -1.72 ± 0.25
CCUCAGCAAUAUUACGGCUC | -2.77 ± 0.16 | -2.46 ± 0.29
CCUCAGCAAUAUUACGGGUA | -3.23 ± 0.18 | -1.9 ± 0.14
CCUCAGCAAUAUUACGGUUU | -3.37 ± 0.13 | -2.73 ± 0.16
CCUCAGCAAUAUUACGUAAU | -4.03 ± 0.21 | -2.74 ± 0.22
CCUCAGCAAUAUUACGUCAA | -4.15 ± 0.31 | -3.11 ± 0.29
CCUCAGCAAUAUUACGUGGG | -4.89 ± 0.25 | -3.15 ± 0.19
CCUCAGCAAUAUUACGUUCU | -4.28 ± 0.34 | -3.23 ± 0.36
CCUGAGCAAUAUUACGAACG | -2.81 ± 0.26 | -1.48 ± 0.27
CCUGAGCAAUAUUACGACGC | -3.08 ± 0.47 | -0.889 ± 0.22
